The record followed here is patent publication US5141947A, “Fibrinolysis-enhancing agents” (Mitsubishi Kasei Corporation, priority 1984, dated 1992).

The subject of the assay is thrombus in carotid artery of rabbit. Kind of assay: in vivo thrombolysis by t-PA, rabbit carotid artery thrombus (Example 4). Conditions: for Thrombus Protein: 2 h infusion, femoral vein, n=4, saline control 1.97 ± 0.38. The protocol:
The carotid artery of a rabbit was exposed from the surrounding tissue under anesthesia by pentobarbital. The exposed artery was surrounded with absorbent cotton soaked with glacial acetic acid and allowed to stay for 3 hours to form thrombus by the damage done to the endorthelium. The thus formed thrombus was tested for dissolution. Immediately after removing out the cotton, physiological saline in which the substance to be tested had been dissolved was injected through the femoral vein. The infusion was continued over 2 hours. After the infusion, the arterial segment wherein the thrombus had been formed was cut out and the thrombus mass was removed out under a microscope. The thrombus was dissolved in alkali and the protein was quantitatively measured by phenol method.

B1: t-PA: single or double chain tissue plasminogen activator (t-PA) (protein, UniProt P00750 36-562, looked up)
Tissue-type plasminogen …: SYQVICRDEKTQMIYQQHQSWLRPVLRSNRVEYCWCNSGRAQCHSVPVKSCSEPRCFNGGTCQQALYFSDFVCQCPEGFAGKCCEIDTRATCYEDQGISYRGTWSTAESGAECTNWNSSALAQKPYSGRRPDAIRLGLGNHNYCRNPDRDSKPWCYVFKAGKYSSEFCSTPACSEGNSDCYFGNGSAYRGTHSLTESGASCLPWNSMILIGKVYTAQNPSAQALGLGKHNYCRNPDGDAKPWCHVLKNRRLTWEYCDVPSCSTCGLRQYSQPQFRIKGGLFADIASHPWQAAIFAKHRRSPGERFLCGGILISSCWILSAAHCFQERFPPHHLTVILGRTYRVVPGEEEQKFEVEKYIVHKEFDDDTYDNDIALLQLKSDSSRCAQESSVVRTVCLPPADLQLPDWTECELSGYGKHEALSPFYSERLKEAHVRLYPSSRCTSQHLLNRTVTDNMLCAGDTRSGGPQANLHDACQGDSGGPLVCLNDGRMTLVGIISWGLGCGQKDVPGVYTKVTNYLDWIRDNMRP
With B1, for the setting “t-PA 0.48 mg/kg alone”, the thrombolytic effect result was “no thrombolytic effect”. Also, the “Thrombus Protein” value by setting is: (t-PA 0.48 mg/kg alone) 2.45 ± 0.81 mg; (t-PA 0.96 mg/kg alone) 0.40 ± 0.16 mg.
